Source: patent US20210253725A1 (BIONTECH, published 2021)
Where a chain is given by its changes, count along the chain named. Names and notes keep the numbering of the source.

T1: CD27 expressed on the cell surface (HT1080_CD27 cells) (human, UniProt P26842 20-260)
T1 sequence (looked up): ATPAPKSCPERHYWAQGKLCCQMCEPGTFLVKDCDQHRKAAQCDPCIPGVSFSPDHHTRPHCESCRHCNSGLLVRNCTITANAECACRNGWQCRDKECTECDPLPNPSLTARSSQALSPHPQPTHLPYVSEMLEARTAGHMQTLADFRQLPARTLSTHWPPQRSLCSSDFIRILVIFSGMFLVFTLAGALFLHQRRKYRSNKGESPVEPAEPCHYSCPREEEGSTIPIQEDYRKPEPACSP

T2: CD27 protein (His-tagged, Sino Biological Inc. 10039-H08B1) (human, UniProt P26842 20-192)
T2 construct: bought; coated onto ELISA plates; also called human CD27; recombinant protein; not shown: His tag
T2 sequence (looked up): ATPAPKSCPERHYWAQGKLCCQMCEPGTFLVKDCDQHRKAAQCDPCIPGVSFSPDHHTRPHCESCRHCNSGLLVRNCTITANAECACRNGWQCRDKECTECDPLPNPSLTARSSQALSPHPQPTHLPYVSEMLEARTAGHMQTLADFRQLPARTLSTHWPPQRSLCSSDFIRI

B1: P018.S.03.A.H04 (antibody, V domains shown)
VH: QSLEESGGRLVTPGTPLTLTCTASGFSLSNYSMNWVRQAPGKGLEWIGIINTYGSAYYASWAKGRFTISKTSTTVDLKMTSLTTEDTATYFCARDAGGSTVPWFFDVWGPGTLVTVSS
VL: AYDMTQTPASVEVAVGGTVTIKCQASQTISNYLAWYQQKPGQRPKLLIYDASKLASGVPSRFDGSGSGTEYTLTISGVGSADAATYYCQQGYADSNVDNVFGGGTEVVVK
notes: V regions on human Ig constant parts; also called AB27_62
B2: P018.S.07.A.H04 (antibody, V domains shown)
VH: QSLEESGGRLVTPGTPLTLTCTVSGLSLSSYDMSWVRQAPGKGLEWIGYIWSGGSTDYASWAKGRFTISKTSTTVDLKIISPTTEDTATYFCARGYVEFDLWGPGTLVTVSS
VL: DPVLTQTPPSVSAAVGGTVTINCQSSQSLYSNNYLSWYQQKAGQPPKVLIWPASSLASGVPSRFKGSASGTQFTLTISELQSDDAATYYCQGTFYDSGWLSAFGGGTEVVVK
notes: V regions on human Ig constant parts; also called AB27_132
B3: P018.S.03.A.D02 (antibody, V domains shown)
VH: B2 VH with L3V, S55T
VL: B2 VL with A42P, A68G, A102T
notes: V regions on human Ig constant parts; also called AB27_47
B4: P018.S.01.A.G04 (antibody, V domains shown)
VH: QEQLVESGGGLVQPEGSLTLTCTASGVSFSNNYYISWVRQAPGKGLEWIACVYTGDDDYTYYPSWAKGRFTISKTSSTTVTLQMTSLTAADTATYFCAREILYPADTDSFDLWGPGTLVTVSS
VL: AFELTQTPSSVEAAVGGTVTIKCQASESISSRLAWYQQKPGQPPKLLIYRASTLASGVPSRFKGSGSGTDFTLTISDLESADAATYYCQAYVGISSGGYIFGGGTEVVVK
notes: V regions on human Ig constant parts; also called AB27_23
B5: P018.S.09.A.D02 (antibody, V domains shown)
VH: QSLEESGGRLVTPGTPLTLTCTASGFSLSKYDMGWFRQAPGKGLEWIGMIGASDRTYYASWVKGRFTISKTSTTVDLRITSPTTEDTATYFCAREYPDARGYYYNLWGPGTPVTVSS
VL: ALVMTQTPASVEAAVGGTVTINCQASQSISDLLAWYQQKPGQPPKLLIYDASDLASGVPSRFSGSGSGTEFTLTISGVQSDDAATYYCQQGYSITNVDNVFGGGTEVVVK
notes: V regions on human Ig constant parts; also called AB27_150
B6: P018.S.01.A.D02 (antibody, V domains shown)
VH: B5 VH with R55S
VL: B5 VL with L46P, S63K, E70Q
notes: V regions on human Ig constant parts; also called AB27_11
B7: P018.S.08.A.D02 (antibody, V domains shown)
VH: QSVEESGGRLVTPGTPLTLTCTVSGFSLSHYHILWVRQAPGEGLKYIGITLNNGRIDYATWAKGRFTISKTSTTVDLEITSPTTEDTATYFCAKYFVSESYDLWGQGTLVTVSS
VL: TAVLTQTPSPVSAAVGSTVTINCQASQSVYNDNWLSWYQQKPGQPPKLLIYGASTLASGVPSRFKGSGSGTQFTLTISDVQSGDAATYYCLGGYKDNSDNVFGGGTEVVVK
notes: V regions on human Ig constant parts; also called AB27_138
B8: P018.S.05.A.D04 (antibody, V domains shown)
VH: QSLEESGGDLVKPGASLTLTCTASEFDFNNNAMCWVRQAPGKGLEWIACIYIGNGGTWYASWAKGRFTISKSSSTTVTLQVTSLTAADTATYFCARGENIAYFILWGPGTLVTVSS
VL: DIVMTQTPASVSAAVGGTVTIKCQASQSINSWLSWYQQKPGQPPKLLIYKASTLASGVPSRFKGSGSGTEFTLTISDLESADAATYYCQGYYYYSSSNYASNAFGGGTEVVVK
notes: V regions on human Ig constant parts; also called AB27_87
B9: P018.S.07.A.B03 (antibody, V domains shown)
VH: QSVEESGGRLVTPGTPLTLTCTVSGFSLSSYAMGWVRQAPGKGLEWIGDIYGSGSTYYASWAKGRFTFSRTSTTVDLKMTSLTTEDTATYFCARSKGYNYNLWNLWGQGTLVTVSS
VL: DIVMTQTPSSVSAAVGGTVTINCQASQNIYTNLAWYQQKPGQRPKLLIYDASDLASGVPSRFSGSGSGTEYTLTISDLESADAATYYCQTYSYSGSSSANPFGGGTEVVVK
notes: V regions on human Ig constant parts; also called AB27_115
B10: P018.S.02.A.F05 (antibody, V domains shown)
VH: QEQLVESGGDLVKPEGSLTLTCTASGFSFSSSYYMSWVRQAPGKGLEWIACIDTVDNYTYYASWAKGRFTISKTSSTTVSLQMTSLTAADTATYFCARERIAYNTDYFNLWGPGTLVTVSS
VL: AQVLTQTPSPVSAAVGGTVTISCQSSQSLYNYNNLAWYQQKPGQPPKLLIYSASNLASGVPSRFGGSGSGTQFTLTISDLQSDDAATYYCQGYYSGAVYTFGGGTEVVVK
notes: V regions on human Ig constant parts; also called AB27_35
B11: P018.S.04.A.B01 (antibody, V domains shown)
VH: B10 VH with E15G, S17T, V55A, N57A
VL: B10 VL
notes: V regions on human Ig constant parts; also called AB27_66
B12: P018.S.02.A.B05 (antibody, V domains shown)
VH: B10 VH with D10G, K13Q, T23K, S28D, V55A, N57G
VL: B10 VL with A53V
notes: V regions on human Ig constant parts; also called AB27_31
B13: P018.S.04.A.C02 (antibody, V domains shown)
VH: B10 VH
VL: B10 VL with A53V, S67G, D83A
notes: V regions on human Ig constant parts; also called AB27_69
B14: P018.S.07.A.B04 (antibody, V domains shown)
VH: QSVEESGGRLVTPGTPLTLTCTVSGFSLSSYDMIWVRQAPGKGLEWIGIIYLTDTTYYANWTKGRFTISKTSTTVDLKISSPTTEDTATYFCARHLDTSSGGFYFNLWGQGTLVTVSS
VL: AQVLTQTPSSVSAAVGGTVTINCQASQSVYNSKILAWYQQKPGRPPKLLIYDASTLASGVPSRFKGSGSGTQFTLTISGVQSDDAATYFCQGEFTCTSADCIAFGGGTEVVVK
notes: V regions on human Ig constant parts; also called AB27_116
B15: P018.S.06.A.B03 (antibody, V domains shown)
VH: B14 VH with T62A
VL: B14 VL
notes: V regions on human Ig constant parts; also called AB27_99
B16: P018.S.02.A.C06 (antibody, V domains shown)
VH: QEQLEESGGGLVQPEGSLTLTCKASGIDFSSNYYISWVRQAPGKGLEWIGCIYTGSDDAAYYASWAKGRFTISKTSSTTVTLQMTSLTAADTATYFCAREILYPTNTDSFDLWGPGTLVTVSS
VL: AQVLTQTPSSVSEPVGGIVTINCQASESISSRLAWYQQKPGQPPKLLIYRAATLASGVPSRFKGSGSGTDFTLTISDLESADAATYYCQSYVGASSGGYFFGGGTEVVVK
notes: V regions on human Ig constant parts; also called AB27_32
B17: P018.S.02.A.H05 (antibody, V domains shown)
VH: QSLEESGGDLVKPGASLTLTCTASGIDFSSSSMCWVRQAPGKGLEWIACIDTGSSGRTDYASWAKGRFTLSKTSATTVTLQMTSLTAADTATYFCTRYGDYAGYGYDSFDPWGPGTLVTVSS
VL: AQVLTQTPSSVSAAVGGTVTINCQASQNINNWCSWYQQKPGQPPKLLIAYASTLASGVSSRFKGSGSGTQFTLTISGVQSDDAATYYCQQTFDCTDVENVFGGGTEVVVK
notes: V regions on human Ig constant parts; also called AB27_40

target: T1, CD27 expressed on the cell surface …; assay: cell-based or functional assay
Further: test concentration or dose not given here.

First: B1
Second: B2
The “IL-8, cross-linked by F(ab')2 fragment [abs. corr.]” value (“IL-8, cross-linked” below) of the first is lower: 1.23 abs. corr for the first, 1.86 abs. corr for the second.

First: B3
Second: B4
The “IL-8, cross-linked” value of the first is higher: 1.47 abs. corr for the first, 1.15 abs. corr for the second.

Compared with B5, B6 is lower in “IL-8, cross-linked” value: 1.75 abs. corr for the first, 1.67 abs. corr for the second.

Going from B7 to B8, the “IL-8, cross-linked” value falls from 1.67 abs. corr to 1.53 abs. corr.

Going from B9 to B10, the “IL-8, cross-linked” value falls from 1.34 abs. corr to 1.17 abs. corr.

Compared with B11, B12 is higher in “IL-8, cross-linked” value: 1.67 abs. corr for the first, 1.76 abs. corr for the second.

First: B13
Second: B14
The “IL-8, cross-linked” value of the first is lower: 1.53 abs. corr for the first, 1.67 abs. corr for the second.

Going from B15 to B16, the “IL-8, cross-linked” value rises from 1.22 abs. corr to 1.59 abs. corr.

In the case of B17, the “IL-8, cross-linked” value is reported as 1.4 abs. corr.

First: B1
Second: B2
The “IL-8 [abs. corr.]” value of the first is higher: 0.211 abs. corr for the first, 0.158 abs. corr for the second.

Compared with B3, B4 is lower in “IL-8 [abs. corr.]” value: 0.463 abs. corr for the first, 0.273 abs. corr for the second.

Going from B5 to B6, the “IL-8 [abs. corr.]” value falls from 1.01 abs. corr to 0.675 abs. corr.

First: B7
Second: B8
The “IL-8 [abs. corr.]” value of the first is higher: 0.534 abs. corr for the first, 0.246 abs. corr for the second.

Going from B9 to B10, the “IL-8 [abs. corr.]” value falls from 0.612 abs. corr to 0.395 abs. corr.

Going from B11 to B12, the “IL-8 [abs. corr.]” value falls from 0.508 abs. corr to 0.201 abs. corr.

Compared with B13, B14 is higher in “IL-8 [abs. corr.]” value: 0.235 abs. corr for the first, 0.304 abs. corr for the second.

First: B15
Second: B16
The “IL-8 [abs. corr.]” value of the first is higher: 0.566 abs. corr for the first, 0.418 abs. corr for the second.

With B17 the “IL-8 [abs. corr.]” value was 0.067 abs. corr.

target: T2, CD27 protein (His-tagged, Sino …); assay: ELISA on coated His-tagged CD27

Compared with B1, B2 is lower in “ELISA [abs. corr.]” value: 3.59 abs. corr for the first, 3.4 abs. corr for the second.

Compared with B3, B4 is higher in “ELISA [abs. corr.]” value: 3.37 abs. corr for the first, 3.77 abs. corr for the second.

First: B5
Second: B6
The “ELISA [abs. corr.]” value of the first is higher: 3.37 abs. corr for the first, 3.26 abs. corr for the second.

B7 and B8 are the same in “ELISA [abs. corr.]” value: 3.37 abs. corr for the first, 3.37 abs. corr for the second.

Going from B9 to B10, the “ELISA [abs. corr.]” value rises from 3.37 abs. corr to 3.44 abs. corr.

First: B11
Second: B12
The “ELISA [abs. corr.]” value of the first is lower: 3.38 abs. corr for the first, 3.48 abs. corr for the second.

Compared with B13, B14 is higher in “ELISA [abs. corr.]” value: 3.37 abs. corr for the first, 3.63 abs. corr for the second.

First: B15
Second: B16
The “ELISA [abs. corr.]” value of the first is higher: 3.59 abs. corr for the first, 3.37 abs. corr for the second.

In the case of B17, the “ELISA [abs. corr.]” value is reported as 3.38 abs. corr.

target: T1, CD27 expressed on the cell surface …; assay: cellular binding assay, HT1080_CD27 cells

Going from B1 to B2, the “Cellular binding assay [RFU]” value rises from 334 RFU to 386 RFU.

First: B3
Second: B4
The “Cellular binding assay [RFU]” value of the first is higher: 397 RFU for the first, 388 RFU for the second.

First: B5
Second: B6
The “Cellular binding assay [RFU]” value of the first is higher: 337 RFU for the first, 323 RFU for the second.

Going from B7 to B8, the “Cellular binding assay [RFU]” value falls from 407 RFU to 317 RFU.

First: B9
Second: B10
The “Cellular binding assay [RFU]” value of the first is higher: 346 RFU for the first, 307 RFU for the second.

Compared with B11, B12 is higher in “Cellular binding assay [RFU]” value: 330 RFU for the first, 374 RFU for the second.

First: B13
Second: B14
The “Cellular binding assay [RFU]” value of the first is higher: 415 RFU for the first, 382 RFU for the second.

Going from B15 to B16, the “Cellular binding assay [RFU]” value falls from 424 RFU to 348 RFU.

With B17 the “Cellular binding assay [RFU]” value was 252 RFU.
